According to the supplement of paper PMC12636428:

Each sequence was assayed on Saccharomyces cerevisiae (assay: transcriptional activation domain activity (GFP:mCherry ratio, weighted mean of sorted bins, harmonized to initial dataset scale) (arbitrary fluorescence ratio units); higher = stronger transcriptional activation). Settings: beta-estradiol 1 µM; induction time 4 h.
In short: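 Values are activation activity, found as the read-weighted mean of bin median fluorescence, averaged across barcodes and then mapped linearly onto the initial dataset scale. Barcoded protein tiles fused to an estradiol-inducible synthetic transcription factor were integrated at the URA3 locus of GFP-reporter yeast diploids. Cells were induced for 4 hours at 30 °C with 1 uM beta-estradiol in SC, sorted into 8 bins by GFP:mCherry ratio, and barcode-sequenced, with tiles under 50 reads discarded.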

Sequence | transcriptional activation domain activity
PQCYNNWKSLLLLQRYLYFVLPPFPVHFLPIFKILCTYIQLLIWFATISLASL | 40700
PQEPQKGEEEGGARGRPRCPRRRGGPKEEAAVPVEAPAVLAAEPVKADEPAAP | 30200
PQHCLDLNFMMALLHTGYGMPLEREVKIAKKIKGNELGWCLGASLPLLSKESG | 84000
PQPAAGKRKRGRPRTSLPESEPRSEDRRSNTPSAAPQQSAKKSRGRPPKAASK | 38800
PQQAQAQKEPKKPKPPPPPAAPPGPPPPPRAPPPPPPPPPPPPGGGGAPPPPA | 27600
PQQNIAPPFLNTNSSATDSNPNTNLEDSLFFDHDLLSSSITNTNNGQGSNNGR | 24800
PQRLDMIHFPLIYVGCVGVLLFNPFKIFFGSARMYFLNTMWRLAFSGFYHVEF | 40000
PQSANITGACTELGEHTDCPIWNLLDARSLFRSCADLLISSWTWWWLAACRYV | 44700
PQSEKSFKSAKNAPEKRAEERPRRRKTCARQNMRTNTNAAHTAHATGAITRRI | 30100
PQYLHLGYLGHHIAIDPIPHPVGTVYLPLPPDTFPTWCTVTACGWILLPLFPL | 29000
PRFLMYCKLGICQLVILRLFTSTFTIVLEMMGLFCPESMSWRFGHFWAVLFNF | 63600
PRHIQTIDEKLINDSNYLAFLKFDDLENEKFHSSASSISSPSYSSPSFSSYRN | 82100
PRKFICLTNQLTARLGCELDKDHDLFKRTLYAVVQYVLVNHPHHILYNLIALS | 46000
PRLFPIASHLFFSLPHAKCCYPYLLLLLFPLLPLPFSLLVFCNLIFFFFFLFF | 41300
PRNSWIKWAFLFARYFPLLAGLCGRVIDSIVLYRQPIPIPLNALRIWYICQVL | 52500
PRQMCRLYRAGYGLFYNQFCAYIDIAFCMMLCQWNLDILETLRYRLEFGRYLA | 71100
PRQPRERKPRAEGEEGEHVEGQQEAGERRRERRPRKPRNKSAGGAGAGAEGAA | 17100
PRTASRRAARSARPRRQSSPRPKGRRSNTRPSKRASVSPAKDSDASDGDDERE | 19400
PRVLHGLELICHIAYLIIILHFIFDWRIDGHMPEWRFYGAREYILFIYSLSIL | 31100
PRVVELQKEVIAYNKRLLALNIRDHQVQYAKLNIFYCFGLFWYRVLKLLVLSA | 38500
PSASLSFVSFFFFFLFLPLTFSSSYFFFLPFSSFPLFSSLSSTHIWSFLLSPL | 39800

Sequence | transcriptional activation domain activity
PSASTRSAKSGSKGKGSKTTTVGSGSDTEKESAKMASSRSSKHSSSSRKDKSS | 29200
PSCCLSFFPDFSFFSVFFSLLVYFPFRALYDLLFVDLLLILFLFILIFFHLFL | 33000
PSDSRSRSRSRSASRKRGGAGRGGRSDSSDSEGDNSRRRQVSPARRRQRPARG | 38300
PSEEAAAAAVEEEEDVTQPEKPKDPEPTPVQPKATPAPAPTPAKPAVPKSWAS | 37300
PSEEKTVQKPDTAVAPPEDKAEPTPDATKPKEKKSRKKSKKAAEEKADGASTS | 25300
PSEKPANGAKGKGGKPRGKSGEKDNGAAEFGADPKNADKKSSNESSGAKSRPK | 37900
PSFLWWLPLVLFVMATGIFVILSFLLFLIIHGLYYIVPLWQKCGSIHVCVSVL | 52700
PSGGLFGNNNASTTTGGIGLFGNNNAAASTGGGLFGKPAASTTTATTGGLFGA | 17400
PSGIIVLVICTLGLLCCTIMIILIFYFRYFKPIMSSSPIFCYLQLVGISMAYI | 46000
PSGSPLTPSSGKGGRSASLGDAESNKTGEPYGPHSGKAYFEVCVNVGKHAIRL | 37500
PSHEYNKTLSALLILLESSAERCFKDLTLLRAAGVTLLGRLFLVFPVFFNPRH | 57600
PSHRSVTPFLGQQQQLQSLVPLTPSALFGGANFNQSGNIADSSLSFTFTNSSN | 49800
PSIFFLLFICYFVICSIHVDLCYYDSLFNCLFFISSMFSHNYLFFCLCLCYHV | 64200
PSIRRCPVSFGDIDMEAELACIQYIREVLLPELVPCAYILLSYILHLLHEVSL | 77000
PSLKCVSLTYDELVRIVAQLLQKAFFKRFPSLKERFYSLVLSFLKKAMVPTNK | 40500
PSLLVLAAHTLAKHGVLAPMSTLITRFLELPFQIKRPQLYYNLLLHAISRFPS | 70100
PSLPPSHPVPSLSLFCFFVFFFAFFFFFFMPIFYYNLLISHFPFCRCWRCLHM | 26200
PSLYLVTFFRDSLEMIMISLKYFRYEAHKVVNILPILPDLYTIVRTLVNKCVR | 43700
PSNQAFWIACLFSSVMYHLLFHLLLLFFSLLFLFFLFFLPSYHVLFHFHHMTG | 47700
PSNSLEDSIQQTVKARRKLSARPVLRVRIPNNNFSSNSAIPSEPSSASSTSAN | 19300
PSPFPPSLSPPLFPPFPPLPLCPPFLPLFPPSPLSPPFLPLFPPLFLPLSFPP | 50200

Sequence | transcriptional activation domain activity
PSPLPKHQIIREASNVRNITKMKKYDSTFYLHRDHVNYEEYGVDSLLFSYPED | 58100
PSPPKCQVPTLYAVIFRILAYLRLLDAFLFHVYILLTLHELWLIIWIPHHHQS | 41400
PSPRRRRDEDRPRRGGGGFRWKGEERRDRRERPRSPRPEKRRRSKSPRPEKKK | 27500
PSPVLCFRQLCFLVYLIFFNFLLLFCLFAKAEGGIPSCPLQPLDSLYFSLQGF | 49400
PSRLTSPSSRRLPSTPGPHPRKSTPRSKPPPSSPARRRSSSTTPTGRPSQPSS | 24900
PSRPATPPRSSSAPTGISPNPRTRTCSSASCCASSRSPPSTTSPPTPPAAAAP | 51100
PSRTSCATPSPTSSTSAVPSARSSTGPRSRSRSRTASTSSTRASAAPSCSCAR | 10500
PSSLVAQGQCAVAGDDVLEALAIRGIDFKLYAGILLLIALVYRLLLYIVLVFK | 66100
PSSTARRKLLLIYIDFKFFLAASWFRLCNLTLIGSVWWPIWGYMCWILSGPLF | 67300
PSTSPTPSSACAPSAASSTRSPPSTPARGGATSGTCCASACAASTPCVTRYTG | 11500
PTAPNSSLPGCDVWDDIVTAAYYVNPCFNFYHLIDFCPYLWDELGFPSLAWGP | 72200
PTASTIYEEAESQSSYLDDMFRTSQGGRPVTQNSISSIGQGPLRSSYSMAYDS | 51300
PTCALLSLQPVLPSPFGPPSSLLPVTSLFYLSPPSLLCILALSSFLLILPLLF | 38800
PTGESLLDAYWKTLLGGITYGDPNGMEALFWDWYQGILPFRMLQLFHLDRVWF | 48500
PTGRSSTPTSASSTRARRTRGSASARSSRAAGGGSCSSTCRSPPGRVPRTSVS | 36800
PTLLVALLALLIPHILIFIAKKINTIMTLSALHDRLMIRYYKFLVINVLVFFC | 39300
PTPSGDPEEEEEGEGEEGGEERGGGGGGGGGKKKNHAGAIAGGVVGGVAVIGL | 24600
PTQEVLRFCKRELMHKLWNLLMDDDFLHAYMHGIVVCCGDGVLRRLFPRIFTY | 44400
PTRRSFSSAWFLCIRYFSLCSNIVVIVDTFGTFSYNVPMYGLSKKLLMWLACV | 47900
PTTSFFFWYRLYCSVLLSIGILISIPTLWILPSCFLPNHWKALWVVVLSFLGW | 52400
PTTTTTPSSPSTTCRSPTRRRAPRRRSACTGSRTRRGSPQSRRRCCRRTTSTT | 28900

Sequence | transcriptional activation domain activity
PTWGLVLRLGCGIVYIVIFLVYVGLGGVFPGRYTYWGLSADNAGIMVYVLLCV | 60400
PVALLSLCFNLCFQTCMHIVSLDLHYHFPNLSLGRSLNILRAFSFFVMIFFIS | 88100
PVAPPAASQPHPTANTMQATHAPPSSGRRRGRPKGSKNKPKPEAPTGPEASAG | 6790
PVIFRKRPTYLMFISVCLMYIYLFAVVYIRPYKLTRNNHVAIISWITIVIFLF | 44400
PVKADEPAAPVEAVKETETAAPVEDAAAPEVAAEAPKEEVKEEKVRSLRTAIS | 27300
PVKAIEAPLAEEKSEEKEAEPEKAEEAEEEVTEKPAAKKAKGGKKGAKGKKVK | 46800
PVKETETAAVPEVTAEPEAEAAKPAEAPKEEKKEEKKEAKSPKVSRRLSQRVE | 58300
PVKKLYLLVQYIQDLGRVCGIPVSPLCCVQALQAKLGPIAQACVSARIWARWR | 67400
PVKPASKKPAEKAKEKAKEAPKEKAKAKEPAKAKEDKPKAKPASKKAAAKPAA | 34700
PVLEQKRCIRAMEEMIILCKEYIRIARPQISACLISALSFDELRATAFSCWVA | 48700
PVNFIFVKLAKVFPLDYLFMVLLIIYFFLVTLTGIITLGVRFFWITLFRIRRG | 19400
PVNYLRLTNIGVCDMDDGYDLACHLMLNEPDADSCALLRVLIHRLKECTNLNI | 47100
PVPAAAASPVAVPQPAPEQSKPVVKEEKKPEKKVDEERKRKGTKEGQQQQQQQ | 16700
PVPAKEPAAVEAPEKEVAEEAKLEDGEIADEAKADDSAEEKPADGAAAAAAAP | 34700
PVPFDPPMPVDGLGFLPGDGWMDAMDDIGPLEALDLGFLPVDFWEPHFNRQWN | 135000
PVRGIVELPRNSFPDEVLHFTCLTIVCAAIFFLFSSFLFFFCLLHLSCYLFVP | 30800
PVVAPKQPRRRAVAGERYERLAQVGEGTYGKVYKARNTGSGALVALKRIRMEQ | 68200
PVVDLNSCFSNGFNNEKQEIEMETDDSPILLMSSSASRENSNTFSVIQRTPDG | 52900
PWLLLIRYLALGTNLSMVVLTFGIFGLQWNRWISILTLRVYTMFNRKRVILWL | 61100
PWTFDLGLFGLGLFGLFGLFGLFGLFGLGPFGLGLFGPLDFLALDFLDLWTFW | 18400
